B1: GAGE1 (parent)
chain: RPRRYVQPPEMIGPMRPEQFSDEV
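Note: lentivirally expressed fusions sorted by FACS into six bins by GFP to DsRed ratio, PSI derived from sequencing read proportions per bin multiplied by bin number.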

This series covers variants of B1. As to the kind of experiment: protein stability index of a GFP-peptide fusion (GPS, HEK-293T) (PSI 1-6); higher = more stable. To be noted: c terminus: a fixed tail appended.
RPRRYVQPPEMIQPMRPEQFSDEV [G13Q]: the protein stability index was found to be 4.54. The value for RPRRYVQPPEMIRPMRPEQFSDEV [G13R] was 4.19; that for RPRRYVQPPEMIFPMRPEQFSDEV [G13F] was 3.8. For the variant RPRRYVQPPEMIVPMRPEQFSDEV [G13V], the protein stability index stood at 4.05. The value for RPRRYVQPPEMIYPMRPEQFSDEV [G13Y] was 3.85; that for RPRRYVQPPEMIIPMRPEQFSDEV [G13I] was 3.25; that for RPRRYVQPPEMILPMRPEQFSDEV [G13L] was 3.71. Take RPRRYVQPPEMIAPMRPEQFSDEV [G13A]: the protein stability index was 4.21. The value for RPRRYVQPPEMISPMRPEQFSDEV [G13S] was 4.09; that for RPRRYVQPPEMIGPMCPEQFSDEV [R16C] was 3.84; that for RPRRYVQPPEMIGPMAPEQFSDEV [R16A] was 4.31. As for RPRRYVQPPEMIGPMPPEQFSDEV [R16P], the protein stability index stood at 4.35. The value for RPRRYVQPPEMIGPMNPEQFSDEV [R16N] was 4.31. Consider RPRRYVQPPEMIGPMHPEQFSDEV [R16H], for which the protein stability index came out at 4.29.

As for RPRRYVQPPEMIGPMVPEQFSDEV [R16V], the protein stability index is 4.16. The value for RPRRYVQPPEMIGPMYPEQFSDEV [R16Y] was 4.02; that for RPRRYVQPPEMIGPMQPEQFSDEV [R16Q] was 4.26. The value for RPRRYVQPPEMIGPMRAEQFSDEV [P17A] was 3.8; that for RPRRYVQPPEMIGPMRHEQFSDEV [P17H] was 3.92.

RPRRYVQPPEMIGPMRIEQFSDEV [P17I]: the protein stability index came to 3.72. The value for RPRRYVQPPEMIGPMRLEQFSDEV [P17L] was 3.97. For the variant RPRRYVQPPEMIGPMRKEQFSDEV [P17K], the protein stability index came to 4.14. The value for RPRRYVQPPEMIGPMRREQFSDEV [P17R] was 3.96. The value for RPRRYVQPPEMIGPMRNEQFSDEV [P17N] was 4.09. The value for RPRRYVQPPEMIGPMRTEQFSDEV [P17T] was 3.85.

For the variant KPRRYVQPPEMIGPMRPEQFSDEV [R1K], the protein stability index turned out to be 3.96. The value for DPRRYVQPPEMIGPMRPEQFSDEV [R1D] was 4.33; that for NPRRYVQPPEMIGPMRPEQFSDEV [R1N] was 3.93; that for QPRRYVQPPEMIGPMRPEQFSDEV [R1Q] was 4.23. The value for IPRRYVQPPEMIGPMRPEQFSDEV [R1I] was 3.7. As for HPRRYVQPPEMIGPMRPEQFSDEV [R1H], the protein stability index was 3.94. The value for APRRYVQPPEMIGPMRPEQFSDEV [R1A] was 3.63. The value for LPRRYVQPPEMIGPMRPEQFSDEV [R1L] was 3.96; that for GPRRYVQPPEMIGPMRPEQFSDEV [R1G] was 3.85. The value for MPRRYVQPPEMIGPMRPEQFSDEV [R1M] was 3.98. With TPRRYVQPPEMIGPMRPEQFSDEV [R1T], the protein stability index was 4.01. The value for WPRRYVQPPEMIGPMRPEQFSDEV [R1W] was 2.74. The value for YPRRYVQPPEMIGPMRPEQFSDEV [R1Y] was 3.29; that for FPRRYVQPPEMIGPMRPEQFSDEV [R1F] was 3.24; that for RPRRYVQPPEMGGPMRPEQFSDEV [I12G] was 4.69. The value for RPRRYVQPPEMPGPMRPEQFSDEV [I12P] was 4.31; that for RPRRYVQPPEMQGPMRPEQFSDEV [I12Q] was 4.62. In the case of RPRRYVQPPEMAGPMRPEQFSDEV [I12A], the protein stability index amounted to 4.42.

Take RPRRYVQPPEMMGPMRPEQFSDEV [I12M]: the protein stability index was 4.39. The value for RPRRYVQPPEMTGPMRPEQFSDEV [I12T] was 4.53; that for RPRRYVQPPEMLGPMRPEQFSDEV [I12L] was 4.12; that for RPRRYVQPPEMHGPMRPEQFSDEV [I12H] was 4.3.

As to RPRRYVQPPEMWGPMRPEQFSDEV [I12W], the protein stability index turned out to be 3.84.

For the variant RPRRYVQPPEMRGPMRPEQFSDEV [I12R], the protein stability index came to 4.35. For the variant RPRRYCQPPEMIGPMRPEQFSDEV [V6C], the protein stability index was found to be 3.63.

On to RPRRYSQPPEMIGPMRPEQFSDEV [V6S], for which the protein stability index was 4.17. The value for RPRRYYQPPEMIGPMRPEQFSDEV [V6Y] was 3.01; that for RPRRYGQPPEMIGPMRPEQFSDEV [V6G] was 4.18. The value for RPRRYKQPPEMIGPMRPEQFSDEV [V6K] was 3.83; that for RPRRYLQPPEMIGPMRPEQFSDEV [V6L] was 3.69; that for RPRRYPQPPEMIGPMRPEQFSDEV [V6P] was 4.06. The value for RPRRYTQPPEMIGPMRPEQFSDEV [V6T] was 3.66; that for RPRRYDQPPEMIGPMRPEQFSDEV [V6D] was 4.34; that for RPRRCVQPPEMIGPMRPEQFSDEV [Y5C] was 3.2. Take RPRRHVQPPEMIGPMRPEQFSDEV [Y5H]: the protein stability index is 3.81. The value for RPRRKVQPPEMIGPMRPEQFSDEV [Y5K] was 4.43; that for RPRRPVQPPEMIGPMRPEQFSDEV [Y5P] was 4.32; that for RPRRMVQPPEMIGPMRPEQFSDEV [Y5M] was 3.47. The value for RPRRRVQPPEMIGPMRPEQFSDEV [Y5R] was 3.91; that for RPRRDVQPPEMIGPMRPEQFSDEV [Y5D] was 4.22; that for RPRRLVQPPEMIGPMRPEQFSDEV [Y5L] was 3.31. The value for RPRRVVQPPEMIGPMRPEQFSDEV [Y5V] was 4.41. On to RPRRYVQPPEMIGPMRPEQDSDEV [F20D], for which the protein stability index is 4.91. Consider RPRRYVQPPEMIGPMRPEQTSDEV [F20T], for which the protein stability index came to 4.62. RPRRYVQPPEMIGPMRPEQGSDEV [F20G]: the protein stability index is 4.85. With RPRRYVQPPEMIGPMRPEQRSDEV [F20R], the protein stability index is 4.64.

In the case of RPRRYVQPPEMIGPMRPEQHSDEV [F20H], the protein stability index is 4.04. The value for RPRRYVQPPEMIGPMRPEQYSDEV [F20Y] was 3.82; that for RPRRYVQPPEMIGPMRPEQISDEV [F20I] was 4.31; that for RPRRYVQPPEMIGPMRPEQVSDEV [F20V] was 4.71.

On to RPRRYVQPPEMIGPMRPEQCSDEV [F20C], for which the protein stability index is 4.64.

As to RPRRYVQPPEMIGPMRPEQFSDED [V24D], the protein stability index worked out at 4.09. The value for RPRRYVQPPEMIGPMRPEQFSDEP [V24P] was 4.06; that for RPRRYVQPPEMIGPMRPEQFSDEC [V24C] was 3.35.

On to RPRRYVQPPEMIGPMRPEQFSDEQ [V24Q], for which the protein stability index worked out at 4.18. Regarding RPRRYVQPPEMIGPMRPEQFSDEE [V24E], the protein stability index was 4.17. The value for RPRRYVQPPEMIGPMRPEQFSDEM [V24M] was 3.74; that for RPRRYVQPPEMIGLMRPEQFSDEV [P14L] was 3.48. RPRRYVQPPEMIGRMRPEQFSDEV [P14R]: the protein stability index was 4.31.

With RPRRYVQPPEMIGDMRPEQFSDEV [P14D], the protein stability index is 4.54. For the variant RPRRYVQPPEMIGGMRPEQFSDEV [P14G], the protein stability index was 3.97. The value for RPRRYVQPPEMIGCMRPEQFSDEV [P14C] was 3.68; that for RPRRYVQPPEMIGHMRPEQFSDEV [P14H] was 4.31.

For RPRRYVQPPEMIGKMRPEQFSDEV [P14K], the protein stability index came to 3.71.

Turning to RPRRYVQPPEMIGWMRPEQFSDEV [P14W], the protein stability index stood at 3.58. The value for RPRRYVQPPEMIGYMRPEQFSDEV [P14Y] was 4.26. The value for RPKRYVQPPEMIGPMRPEQFSDEV [R3K] was 4.02; that for RPWRYVQPPEMIGPMRPEQFSDEV [R3W] was 2.6. The value for RPERYVQPPEMIGPMRPEQFSDEV [R3E] was 4.51.

The values are drawn from the supplement of paper PMC10567573.
